# Experimental data published in publication PMC11532494 (Nature Communications, 2024).
# Several values for one entry are separate records, joined by “and”; a condition that tells them apart may be missing. Equal values may be shown once. Read-outs that look alike come from different tables or passages of the source. No end group written: not given here. *: point of attachment. AMC = Cc1cc(=O)oc2cc(N*)ccc12
# Experiments:
# Controls [1] = assay type: biochemical
# VsHdaH (1b) = assay type: biochemical, Vibrio sp.; conditions: for RFU means, VsHdaH (1b) / RFU*2 means, VsHdaH (1b): means of two measurements; for [AMC] (nM), VsHdaH (1b), means / [AMC] (nM), VsHdaH (1b): substrate screening; for [AMC] (nM), VsHdaH (1b), means: mean of two measurements
# RwDmhA (1b) = RwDmhA (1b) (Rhizorhabdus wittichii, UniProt A0A067XIQ6); assay type: biochemical
# LcApaH (3) = LcApaH (3) (Legionella cherrii, UniProt A0A0W0SGS1); assay type: biochemical
# BsAcuC (2c) = target: T1, BsAcuC (2c) (Bacillus subtilis, UniProt P39067); experiment: Substrate screening assay (acyl-peptide-AMC); assay type: biochemical; conditions: for RFU means, BsAcuC (2c) / RFU*2 means, BsAcuC (2c): means of two measurements; for [AMC] (nM), BsAcuC (2c), means: substrate screening, mean of two measurements
# T1 construct: made in house; host or cells: E. coli BL21 (DE3)
# T1 sequence (P39067 1-387): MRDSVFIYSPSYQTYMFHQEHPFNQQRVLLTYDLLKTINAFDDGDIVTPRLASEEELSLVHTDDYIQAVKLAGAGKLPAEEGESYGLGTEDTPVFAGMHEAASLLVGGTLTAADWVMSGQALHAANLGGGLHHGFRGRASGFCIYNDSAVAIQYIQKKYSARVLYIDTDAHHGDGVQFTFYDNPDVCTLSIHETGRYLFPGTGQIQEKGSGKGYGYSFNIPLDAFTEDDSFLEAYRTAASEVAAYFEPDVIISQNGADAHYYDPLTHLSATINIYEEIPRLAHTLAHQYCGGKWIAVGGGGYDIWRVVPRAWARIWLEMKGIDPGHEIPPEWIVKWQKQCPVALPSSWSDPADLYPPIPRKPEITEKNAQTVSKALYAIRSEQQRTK
# Protocol: (§1) Experiments with SIRT2 and SIRT5 were supplemented with NAD^+ (500 µM). Thereafter, a solution of trypsin (25 µL, 5.0 mg/mL; final concentration of 2.5 mg/mL) was added, and the development of the assay was allowed to proceed for 90 min at room temperature before fluorescence analysis. […] To this end, a single category is given to all conversions >48% on the heatmap. […] For the H4-derived peptide LGKbio no positive control was available.
# KpHdaH (1b) = KpHdaH (1b) (Klebsiella pneumoniae, UniProt A0A377Z5F6); assay type: biochemical; conditions: for RFU means, KpHdaH (1b) / RFU*2 means, KpHdaH (1b): means of two measurements; for [AMC] (nM), KpHdaH (1b), means / [AMC] (nM), KpHdaH (1b): substrate screening; for [AMC] (nM), KpHdaH (1b), means: mean of two measurements
# LpApaH (3) = LpApaH (3) (Legionella pneumophila, UniProt A0A2S6EWV0); assay type: biochemical
# VcHdaH (5b) = assay type: biochemical, Vibrio cholerae; conditions: for RFU means, VcHdaH (5b) / RFU*2 means, VcHdaH (5b): means of two measurements; for [AMC] (nM), VcHdaH (5b), means: substrate screening, mean of two measurements
# PsApaH (4) = PsApaH (4) (Pseudomonas sp. M30-35, UniProt A0A1Y0KY79); assay type: biochemical; conditions: for RFU means, PsApaH (4) / RFU*2 means, PsApaH (4): means of two measurements; for [AMC] (nM), PsApaH (4), means / [AMC] (nM), PsApaH (4): substrate screening; for [AMC] (nM), PsApaH (4), means: mean of two measurements
# Protocol: as §1
# Controls [2] = assay type: biochemical; remark: listed apart in the source
# RsPrpH (1b) = experiment: Substrate screening assay (acyl-peptide-AMC); assay type: biochemical, Rhizorhabdus sp.
# [3] = two measurements, single values
# [4] = substrate screening, mean of two measurements
# [5] = substrate screening, measurement 1 of two
# [6] = substrate screening, measurement 2 of two
substance,measurement,setting,value
"QPKKoct (QPKK-{AMC}; not fully specified (residue 4); printed as QPKKoct; also: octanoyl-lysine (which Lys not given here); UniProt P04637 317-320, looked up, fragment)","RFU means, controls",Controls [1],8340.5 RFU
same,"RFU*2, controls",Controls [1],13158 RFU*2 and 20204 RFU*2
same,"RFU*2 means, controls",Controls [1],16681 RFU*2
same,"RFU, controls",Controls [1],6579 RFU and 10102 RFU
same,"RFU means, VsHdaH (1b)",VsHdaH (1b),110.5 RFU
same,"RFU*2 means, VsHdaH (1b)",VsHdaH (1b),221 RFU*2
same,"[AMC] (nM), VsHdaH (1b), means",VsHdaH (1b),107.91 nM
same,"[AMC] (nM), VsHdaH (1b)",VsHdaH (1b); measurement 1 of two,121.09 nM
same,"[AMC] (nM), VsHdaH (1b)",VsHdaH (1b); measurement 2 of two,94.73 nM
same,"RFU*2, VsHdaH (1b)",VsHdaH (1b); [3],248 RFU*2 and 194 RFU*2
same,"RFU, VsHdaH (1b)",VsHdaH (1b); [3],124 RFU and 97 RFU
same,"RFU means, RwDmhA (1b)",RwDmhA (1b); means of two measurements,64 RFU
same,"RFU*2 means, RwDmhA (1b)",RwDmhA (1b); means of two measurements,128 RFU*2
same,"[AMC] (nM), RwDmhA (1b), means",RwDmhA (1b); [4],62.50 nM
same,"[AMC] (nM), RwDmhA (1b)",RwDmhA (1b); [5],51.76 nM
same,"[AMC] (nM), RwDmhA (1b)",RwDmhA (1b); [6],73.24 nM
same,"RFU*2, RwDmhA (1b)",RwDmhA (1b); [3],106 RFU*2 and 150 RFU*2
same,"RFU, RwDmhA (1b)",RwDmhA (1b); [3],53 RFU and 75 RFU
same,"RFU means, LcApaH (3)",LcApaH (3),186 RFU
same,"RFU*2 means, LcApaH (3)",LcApaH (3),372 RFU*2
same,"[AMC] (nM), LcApaH (3), means",LcApaH (3),181.64 nM
same,"RFU means, BsAcuC (2c)",BsAcuC (2c),2011.5 RFU
same,"RFU*2 means, BsAcuC (2c)",BsAcuC (2c),4023 RFU*2
same,"[AMC] (nM), BsAcuC (2c), means",BsAcuC (2c),1964.36 nM
same,"RFU*2, BsAcuC (2c)",BsAcuC (2c); [3],4802 RFU*2 and 3244 RFU*2
same,"RFU means, KpHdaH (1b)",KpHdaH (1b),-28 RFU
same,"RFU*2 means, KpHdaH (1b)",KpHdaH (1b),-56 RFU*2
same,"[AMC] (nM), KpHdaH (1b), means",KpHdaH (1b),-27.34 nM
same,"[AMC] (nM), KpHdaH (1b)",KpHdaH (1b); measurement 1 of two,-12.70 nM
same,"[AMC] (nM), KpHdaH (1b)",KpHdaH (1b); measurement 2 of two,-41.99 nM
same,"RFU means, LpApaH (3)",LpApaH (3),63 RFU
same,"RFU*2, LpApaH (3)",LpApaH (3),110 RFU*2 and 142 RFU*2
same,"RFU*2 means, LpApaH (3)",LpApaH (3),126 RFU*2
same,"RFU, LpApaH (3)",LpApaH (3),55 RFU and 71 RFU
same,"[AMC] (nM), LpApaH (3)",LpApaH (3),53.71 nM and 69.34 nM
same,"[AMC] (nM), LpApaH (3), means",LpApaH (3),61.52 nM
same,"RFU means, VcHdaH (5b)",VcHdaH (5b),71 RFU
same,"RFU*2 means, VcHdaH (5b)",VcHdaH (5b),142 RFU*2
same,"[AMC] (nM), VcHdaH (5b), means",VcHdaH (5b),69.34 nM
same,"RFU*2, VcHdaH (5b)",VcHdaH (5b); [3],138 RFU*2 and 146 RFU*2
same,"RFU, VcHdaH (5b)",VcHdaH (5b); [3],69 RFU and 73 RFU
same,"RFU means, PsApaH (4)",PsApaH (4),80.5 RFU
same,"RFU*2 means, PsApaH (4)",PsApaH (4),161 RFU*2
same,"[AMC] (nM), PsApaH (4), means",PsApaH (4),78.61 nM
same,"[AMC] (nM), PsApaH (4)",PsApaH (4); measurement 1 of two,85.94 nM
same,"[AMC] (nM), PsApaH (4)",PsApaH (4); measurement 2 of two,71.29 nM
same,"RFU*2, PsApaH (4)",PsApaH (4); [3],146 RFU*2 and 176 RFU*2
same,"RFU, PsApaH (4)",PsApaH (4); [3],73 RFU and 88 RFU
same,"[AMC] (nM), controls, means",Controls [2],8145.02 nM
same,"RFU means, RsPrpH (1b)",RsPrpH (1b); means of two measurements,38 RFU
same,"RFU*2 means, RsPrpH (1b)",RsPrpH (1b); means of two measurements,76 RFU*2
same,"[AMC] (nM), RsPrpH (1b), means",RsPrpH (1b); [4],37.11 nM
same,"[AMC] (nM), RsPrpH (1b)",RsPrpH (1b); [5],3.91 nM
same,"[AMC] (nM), RsPrpH (1b)",RsPrpH (1b); [6],70.31 nM
"QPKKpal (QPKK-{AMC}; not fully specified (residue 4); printed as QPKKpal; also: palmitoyl-lysine (which Lys not given here); UniProt P04637 317-320, looked up, fragment)","RFU means, controls",Controls [1],9515.5 RFU
same,"RFU*2, controls",Controls [1],16530 RFU*2 and 21532 RFU*2
same,"RFU*2 means, controls",Controls [1],19031 RFU*2
same,"RFU, controls",Controls [1],8265 RFU and 10766 RFU
same,"RFU means, VsHdaH (1b)",VsHdaH (1b),11 RFU
same,"RFU*2 means, VsHdaH (1b)",VsHdaH (1b),22 RFU*2
same,"[AMC] (nM), VsHdaH (1b), means",VsHdaH (1b),10.74 nM
same,"[AMC] (nM), VsHdaH (1b)",VsHdaH (1b); measurement 1 of two,40.04 nM
same,"[AMC] (nM), VsHdaH (1b)",VsHdaH (1b); measurement 2 of two,-18.55 nM
same,"RFU means, RwDmhA (1b)",RwDmhA (1b),-48 RFU
same,"RFU*2 means, RwDmhA (1b)",RwDmhA (1b),-96 RFU*2
same,"[AMC] (nM), RwDmhA (1b), means",RwDmhA (1b),-46.88 nM
same,"RFU means, LcApaH (3)",LcApaH (3),26.5 RFU
same,"RFU*2 means, LcApaH (3)",LcApaH (3),53 RFU*2
same,"[AMC] (nM), LcApaH (3), means",LcApaH (3),25.88 nM
same,"RFU means, BsAcuC (2c)",BsAcuC (2c),77 RFU
same,"RFU*2 means, BsAcuC (2c)",BsAcuC (2c),154 RFU*2
same,"[AMC] (nM), BsAcuC (2c), means",BsAcuC (2c),75.20 nM
same,"RFU means, KpHdaH (1b)",KpHdaH (1b),2.5 RFU
same,"RFU*2 means, KpHdaH (1b)",KpHdaH (1b),5 RFU*2
same,"[AMC] (nM), KpHdaH (1b), means",KpHdaH (1b),2.44 nM
same,"[AMC] (nM), KpHdaH (1b)",KpHdaH (1b); measurement 1 of two,8.79 nM
same,"[AMC] (nM), KpHdaH (1b)",KpHdaH (1b); measurement 2 of two,-3.91 nM
same,"RFU means, LpApaH (3)",LpApaH (3),16 RFU
same,"RFU*2 means, LpApaH (3)",LpApaH (3),32 RFU*2
same,"[AMC] (nM), LpApaH (3), means",LpApaH (3),15.63 nM
same,"RFU means, VcHdaH (5b)",VcHdaH (5b),-8.5 RFU
same,"RFU*2 means, VcHdaH (5b)",VcHdaH (5b),-17 RFU*2
same,"[AMC] (nM), VcHdaH (5b), means",VcHdaH (5b),-8.30 nM
same,"RFU means, PsApaH (4)",PsApaH (4),27 RFU
same,"RFU*2 means, PsApaH (4)",PsApaH (4),54 RFU*2
same,"[AMC] (nM), PsApaH (4), means",PsApaH (4),26.37 nM
same,"[AMC] (nM), PsApaH (4)",PsApaH (4); measurement 1 of two,39.06 nM
same,"[AMC] (nM), PsApaH (4)",PsApaH (4); measurement 2 of two,13.67 nM
same,"[AMC] (nM), controls, means",Controls [2],9292.48 nM
same,"RFU means, RsPrpH (1b)",RsPrpH (1b),-58.5 RFU
same,"RFU*2 means, RsPrpH (1b)",RsPrpH (1b),-117 RFU*2
same,"[AMC] (nM), RsPrpH (1b), means",RsPrpH (1b),-57.13 nM
